Where “and” joins values, the source holds several entries; their conditions need not be identical. Identical values can stand only once.
Target: 16055 DG4 NFL trimer (HIV-1 (Indian subtype C 16055 strain))
Test: SEC + native gel or EMSA

In the case of 16055 DG4 NFL trimer, the stoichiometry N is reported as 3 and 6.
